In patent publication US20240150475A1 (Molecular Partners, published 2024) one finds EC50 and Kd data, which are given here for 14 molecules.

One may read the EC50 as the concentration giving half of the maximal effect. Low readings indicate an effect from little substance, high ones a need for much substance. For orientation: Kd means the concentration at which binding is half-saturated.

Residue numbers refer to the chain shown, from its start.

The target in test [1] is T1, CD123 expressed on the surface of Molm-13 (Molm-13 N1) tumor cells (human, UniProt P26951 19-378).
T1 construct: whole, on cells; also called CD123-expressing tumor cells; CD123 expressed on tumor cells
Description: flow cytometry on CD123-expressing Molm-13 N1 tumor cells, monospecific format. As to the method: Binding of binding proteins of the invention to CD123 expressed on the surface of tumor cells was analyzed by fluorescence activated cell sorting (FACS) flow cytometry. For this purpose, CD123 expressing tumor cells (Molm-13 N1) were seeded at 100′000 cells per well in a 96 well plate. DARPin protein #2, DARPin protein #3, DARPin protein #9, DARPin protein #12, DARPin protein #13 and DARPin protein #14, in monospecific format, were titrated down in 1:5 dilution ratio starting at 2000 nM. Tumor cells were resuspended with diluted DARPin proteins and incubated for 60 minutes at 4° C. The assay was performed in PBS including 2% fetal bovine serum without human serum albumin (HSA). After washing twice with Phosphate Buffer saline (PBS), DARPin® protein specific tumor cell binding was detected by adding unlabeled primary anti-rabbit DARPin® antibody (anti-rabbit 1-1-1 antibody, CePower) at 2 ug/ml. An incubation step of at least 30 minutes at 4° C. followed. Afterwards, cells were washed with PBS and a secondary goat anti-rabbit antibody labelled with Alexa Fluor 488 antibody (ThermoFisher) at 2 ug/ml was added. The same incubation conditions applied. Finally, the cells were washed twice and resuspended in Cytofix fixation buffer (BD Biosciences) for 15 min at room temperature (RT).
(A flow cytometer gives signals particle by particle.)

Test [2] addresses T2, biotinylated extracellular domains of human CD123 with C-terminal Fc tag and Avi tag (bio.hCD123-Fc(kih)-Avi) (human, UniProt P26951 19-303, biotinylated with BirA-GST (Avi tag)).
T2 construct: Bought from Evitria; the second Fc chain and the number of CD123 arms are not described; also called biotinylated hCD123; recombinant human CD123 target; not shown: Avi tag
T2 sequence: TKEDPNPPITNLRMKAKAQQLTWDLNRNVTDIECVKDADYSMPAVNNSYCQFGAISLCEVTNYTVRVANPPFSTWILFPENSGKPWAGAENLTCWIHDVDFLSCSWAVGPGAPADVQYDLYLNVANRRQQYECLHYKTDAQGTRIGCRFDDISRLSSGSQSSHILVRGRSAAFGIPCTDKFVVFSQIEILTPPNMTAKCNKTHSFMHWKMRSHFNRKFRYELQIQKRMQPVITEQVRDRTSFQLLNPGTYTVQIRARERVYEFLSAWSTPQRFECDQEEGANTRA
As to the kind of experiment: SPR (ProteOn XPR36), bio.hCD123 immobilised on NLC chip, DARPin in TCE format injected at 50 nM, single trace. As for the experimental part:
SPR measurements were performed using a ProteOn XPR36 instrument (BioRad). The running buffer was PBS pH 7.4 containing 0.005% Tween 20® (PBST). The bio.hCD123 target was immobilized on a NLC chips (BioRad) to a level of 600 RU. The interactions of the 96well purified CD123-specific ankyrin repeat proteins in TCE format to bio. hCD123 were measured by injecting the DARPin® molecules at 50 nM with an association of 120 s and dissociation of 1200 s using a constant flow of 100 μl/min. Some DARPin proteins were reinjected using a dissociation of 600 s. The target was regenerated between the individual measurements using 10 mM Glycine pH2.5. The signals were double referenced against the running buffer (PBST) treated control lane of L1 and A6.
Dissociation constants (KD) were calculated from the estimated on- and off-rates using standard procedures known to the person skilled in the art. KD values were determined by single trace SPR. The values in Table 2a are averages of multiple replicates.

For test [3], the target named is T2, biotinylated extracellular domains of …. Description: SPR (ProteOn), bio.hCD123 on neutravidin-coated GLC chip, DARPin 100-1.2 nM, 1:1 Langmuir fit. As for the experimental part:
Moreover, the binding affinities of three additional purified ankyrin repeat proteins on recombinant human CD123 target were measured and analyzed with a procedure as described above for DARPin proteins #1, #3 to #9. Briefly, neutravidin was precoated on a GLC chip (BioRad) to a level of 6000 RU. In a second step, bio.hCD123 was immobilized to a level of 1030 RU. A serial dilution of 100, 33, 11, 3.7 and 1.2 nM was used to measure the binding of DARPin protein #12, DARPin protein #13 and DARPin protein #14 to bio.hCD123. For all described measurements, an association of 120 s and dissociation of 1200 s using a constant flow of 100 μl/min were applied. The CD123 target was regenerated with two different conditions (10 mM Glycine pH2.0 and 4M MgCl2) each applied for 30s. The signals were double referenced against interspot and the running buffer (PBST-PBS pH 7.4 containing 0.005% Tween 20®) treated control lane A6. The 1:1 Langmuir model was used for the fitting.
KD values were calculated from the estimated on- and off-rates using standard procedures known to the person skilled in the art. The values in Table 2b are averages of multiple replicates.

B1: DARPin® protein #3 (monospecific format) (designed binder)
chain: DLGKKLLQAARAGQLDEVRELLKAGADVNAKDQYGRTPLHLAAIKGHLEIVEVLLKAGADVNAKDSLGYTPLHLAAVEGPLEIVEVLLKAGADVNAKDAYGQTPLHIAAAWGHLEIVEVLLKAVADVNAQDKSGKTPADLAARAGHQDIAEVLQKAA
In test [1], B1 displayed an EC50 of 77 nM.

B2: DARPin® protein #1 (in TCE format) (designed binder, not shown: small tags and cut ends)
chain: MRGSHHHHHHGSDLGKKLLEAALEGQDDEVRELLKAGADVNAKDQEGYTPLHLAAALGHLEIVEVLLKAGADVNAKDSIGRTPLHLAAYKGHLEIVEVLLKAGADVNAQDLLGETPADLAAEQGHEDIAEVLQKAA
For B2, the Kd in test [2] is 12 nM.

B3: DARPin® protein #6 (in TCE format) (designed binder, not shown: small tags and cut ends)
chain: B2 chain with K16E, G80D, L111A, L112A, E114Q, E122A, Q123L
The molecule B3 returned a Kd in test [2] of 4.5 nM.

B4: DARPin® protein #7 (in TCE format) (designed binder, not shown: small tags and cut ends)
chain: MRGSHHHHHHGSDLGKKLLQAARAGQLDEVRELLKAGADVNAKDEYGLTPLHLAAEFGHLEIVEVLLKAGADVNAKDANGHTPLHLAAAYDHLEIVEVLLKAGADVNAKDTSGKTPLHLAAQYGHLEIVEVLLKAGADVNAQDKSGKTPADLAARAGHQDIAEVLQKAA
Consider B4, for which binding in test [2] was characterised by a dissociation constant (Kd) of 0.93 nM.

B5: DARPin® protein #4 (in TCE format) (designed binder, not shown: small tags and cut ends)
chain: MRGSHHHHHHGSDLGKKLLQAARAGQLDEVRELLKAGADVNAKDEYGATPLHLAAYSGHLEIVEVLLKAGADVNAKDEWGRTPLHVAALSGHLEIVEVLLKAGADVNAKDHQGRTPLHLAALWGHLEIVEVLLKAVADVNAQDKSGKTPADLAARAGHQDIAEVLQKAA
B5: the Kd in test [2] is 45 nM.

B6: DARPin® protein #3 (in TCE format) (designed binder, not shown: small tags and cut ends)
chain: MRGSHHHHHHGSDLGKKLLQAARAGQLDEVRELLKAGADVNAKDQYGRTPLHLAAIKGHLEIVEVLLKAGADVNAKDSLGYTPLHLAAVEGPLEIVEVLLKAGADVNAKDAYGQTPLHIAAAWGHLEIVEVLLKAVADVNAQDKSGKTPADLAARAGHQDIAEVLQKAA
The molecule B6 showed a Kd in test [2] of 0.52 nM.

B7: DARPin® protein #5 (in TCE format) (designed binder, not shown: small tags and cut ends)
chain: MRGSHHHHHHGSDLGKKLLKAALLGQDDEVRELLKAGADVNAKDRFGYTPLHLAAWTGHLEIVEVLLKAGADVNAKDAYGWTPLHIAAHSGHLEIVEVLLKAGADVNAQDLEGETPADLAAAQGHEDIAEVLQKAA
In test [2], B7 showed a dissociation constant Kd of 8.5 nM.

B8: DARPin® protein #9 (in TCE format) (designed binder, not shown: small tags and cut ends)
chain: MRGSHHHHHHGSDLGWKLLDAAEIGQDDEVRILLAAGADVNAKDKQGITPLHIAAAHGHLEIVEVLLKAGADVNAKDEIGRTPLHLAAFKGHLEIVEVLLKAGADVNAQDIIGETPADLAAVRGHEDIAEVLQKAA
With B8, the Kd in test [2] is 2.1 nM.

B9: DARPin® protein #8 (in TCE format) (designed binder, not shown: small tags and cut ends)
chain: MRGSHHHHHHGSDLGKKLLNAAHIGQDDEVRILLAAGADVNAKDIVGKTPLHIAAWLGHLEIVEVLLKAGADVNAKDDHGWTPLHIAAHVGHLEIVEVLLKAGADVNAQDNAGNTPADLVAFQGHEDIAEVLQKAA
B9 yielded a Kd in test [2] of 1 nM.

B10: DARPin® protein #9 (monospecific format) (designed binder)
chain: DLGWKLLDAAEIGQDDEVRILLAAGADVNAKDKQGITPLHIAAAHGHLEIVEVLLKAGADVNAKDEIGRTPLHLAAFKGHLEIVEVLLKAGADVNAQDIIGETPADLAAVRGHEDIAEVLQKAA
In test [1], B10 came in with an EC50 of 7.9 nM.

B11: DARPin® protein #12 (designed binder)
chain: B10 chain with D15L, A23K, E114Q
In the case of B11, the EC50 in test [1] is 3.2 nM. The molecule further returned a Kd in test [3] of 0.49 nM.

B12: DARPin® protein #13 (designed binder)
chain: DLGKKLLEAALEGQLDEVRELLKAGADVNAKDQEGYTPLHLAAALGHLEIVEVLLKAGADVNAKDQIGRTPLHLAAYKGHLEIVEVLLKAGADVNAQDIIGQTPADLAAQRGHQDIAEVLQKAA
In the case of B12, the response in test [1] was half-maximal at 0.41 nM (EC50). Further, the Kd in test [3] is 0.02 nM.

B13: DARPin® protein #14 (designed binder)
chain: B12 chain with E8Q, Q33I
In test [1], B13 came in with an EC50 of 1.3 nM. The molecule also had a Kd in test [3] of 0.02 nM.

B14: DARPin® protein #2 (designed binder)
chain: B12 chain with Q66S, I99L, I100L, Q102E, Q110E, R111Q
Regarding B14, in test [1], the concentration for a half-maximal effect (EC50) came to 29 nM.
